# Test results taken from a protein production outcome set (Wang et al. 2014).
# Experiment: label from the status in PepcDB records
row,Sequence,protein production
1,MEQDASAKNPDIETENKGAISEEEALIQREYSLLIQDYLNSNHRRKVEKIDKAFHLAKDAHAGAKRRSGEPYILHPIAVARIVCQEIGLGSTSICCALLHDVVEDTEYTVEDMRDMFGDKVAQIVDGLTKISGEVFSNSSAQAENFRKLILTMNDDIRVILIKIADRLHNMRTLDSMLPAKQMKIAGETQYVYAPLAHRLGLFAIKSELEDLSFKYEHPQEYEAIKEKIRITEQHRLEMFEHFAAPLKQRFAGMDMSYEMKARVKSVYSIWKKMEKKGVPFEEIYDLFAVRIIFESSPTIPDKNRCWEIYSAITDIYRNRPDRIRDWVSNPKSNGYQALHLTVMGPDGEWVEVQIRSRRMDDIAEKGFAAHWKYKGDNVEEDSELEKWLSTIQEILENPNPNALDFLDTIKLNLFSNEVMVFTPKGEIKRLPQGATALDFAYSLHSDLGDHCIGAKVNHKLVPLSYVLNSGDQVEVLSSKSQQPTEEWLRYVTTARAKSKVDTFLRRKRRELINRGEERVVSVIRTSESMVSAELLDRIAAYFGFLNRETFFYAVGTGTVSLPESFKKLLQGEHSGNFLMRAIRSALKAGKSNKTSSPSGKPAEKEDKKAYNTKKTYILQEDEFSRNYQIAECCKPIPGDDAFGFINDDNTVVVHKRSCPIAMRLKSSFGNRILSTEWSLHSRTSFEAKLALKGIDSTGILTAVTQVISEDFNVGIKHIQLTAKDGIFEGQIHLLVHSSDDLLKICHQLRQNKYIQSVGRIS,failed
2,SLGSLPPAAMESMESLRLKDKNEPVQNLPIQKSIDDVDSKLKGIGKPRKFSKFSLYKQLHRHHLHDADSISSIDSTSSYFNHYRSHHNLIHGLKPHFKLFHPSS,failed
3,MRMNMKKISLSLLTLGVLSGLSINASALPADFPVMPAATAPVSQYVTAVNADSSITFRLFAPTAKQVSVFTGSTPDSIVSHAMTKDEAGVWSFKTPVQAPNLYEYFFSVDGFRTIDTGTAFTKPQRQVNTSLILVPGSILDVRQIPHGELRTLTYHSNALKSERQMYVWTPPGYSESSKPLPVLYFYHGFGDTGASAVVQGRIPQMMDNLLAEKKIEPMLVVIPDTETDVPGIIPEEYPPQERRKVFYPRNALAADRELIHDIIPAIGKRFNVRQDANGRALAGLSQGGYQALVSGMSHLDHFGWLATFSGVTTETVPNMAVAAQLERPEQINQQLKNLTVVIGETDNITGKDIAGLKTMLEQKNIRFDYTHYPNLGHEMDVWRPAYSEFVQKLFK,failed
4,MQALTTYKCIEKGIVVWLTGLPGSGKTTIATRLADLLQKEGYRVEVLDGDWARTTVSEGAGFTREERLRHLKRIAWIARLLARNGVIVICSFVSPYKQARNMVRRIVEEEGIPFLEIYVKASLEEVIRRDPKGLYKKALKGELENFTGITDPYEPPENPQLVLDTESNTIEHNVSYLYSLVKAVIE,not failed
5,MGILSGNPQDEPLHYGEVFSTWTYLSTNNGLINGYRSFINHTGDEDLKNLIDEAIQAMQDENHQLEELLRSNGVGLPPAPPDRPAARLDDIPVGARFNDPEISATISMDVAKGLVTCSQIIGQSIREDVALMFSQFHMAKVQFGGKMLKLNKNKGWLIPPPLHSDRPIKE,not failed
6,IPVFNITSNRGRLLQQISVGDIWGVGRQWANKLISRGIHTAYDLAMTNPHLLKKCFNAVLMRTAMELQGIACGG,failed
7,MATPAYMSITGTKQGLITAGAFTADSVGNTYQEGHEDQVMVQGFSHELIIPRDPQSGQPTGQRVHKPVKITKVFDKSSPLLLAALTSGERLTEITIQWYRTSAAGTQEHYYTTKLEDAIIVDIKDYMHNCQDPANAHFTHLEDVEFTYRKITWTHEVSGTSGSDDWRSPVAG,not failed
8,MVTKILKAPDGSPSDVERIKKESDYLRGTLKEVMLDRISAGIPDDDNRLMKHHGSYLQDDRDLRNERQKQKLEPAYQFMLRVRMPGGVSTPEQWLVMDDLSQKYGNGTLKLTTRETFQMHGILKWNMKKTIQTIHSALLDTIAACGDVNRNVMCASNPYQSEIHSEVYEWSKKLSDDLLPRTRAYHEIWLDEERVAGTPEEEVEPMYGPLYLPRKFKIGIAVPPSNDIDVFSQDLGFIAIVEDGKLIGFNVAIGGGMGMTHGDTATYPQLAKVIGFCRPEQMYDVAEKTITIQRDYGNRSVRKNARFKYTVDRLGLENVKEELENRLGWSLEEAKPYHFDHNGDRYGWVEGIEDKWHFTLFVEGGRITDYDDYKLMTGLREIAKVHTGEFRLTANQNLMIANVSSDKKEEISALIEQYGLTDGKHYSALRRSSMACVALPTCGLAMAEAERYLPTLLDKIEEIIDENGLRDQEITIRMTGCPNGCARHALGEIGFIGKAPGKYNMYLGAAFDGSRLSKMYRENIGEADILSELRILLSRYAKEREEGEHFGDFVIRAGIIKATTDGTNFHD,failed
9,MPHFTKRPAQPQAALAEAAGLRWLAEASSAVAQVVSADAEQITTVGVETQLPTPDAAFKAGEELARIHLAGAPAFGCPPAGWAGLNYIGTQGQACLSTPTWGVFYSQQRVLPFARRARRRNHLTEHALWVVEAACDLISELPDDVPPARIHGDLWFGNLLFGTDGPVFIDPAAHGGHPETDLAMLDVFGAPYLDEIREGYLSINPLPDGWRERTPMHQLHPLAVHAASHGPSYGVELLHAAKATLKLLDLEHHHHHH,failed
10,MITLAQAEVGKVYTVESVQADIQTKKHLNNLGVVAGQAVVLVNYQNQNGIVLLHNSRIALTDTILQAIHVEERSANEKVWVSLDTLKVGERATIVGIHGQGAVKRRLMDMGLTKGTVIFIRKVAPLADPIEINVRGYELTLRKSEAELILVEKEESELEHHHHHH,failed
11,MTKLALFVRLEAKPGQEAALADFLASALPLANAESGTTAWFALKFGPSTFGVFDAFADEAGRQAHLNGQIAAALMANAATLLSSPPNIEKVELLAAKLPA,not failed
12,MANKNMRNTTTKVEALIESCRSEGKWHRVIELTDELKTGSPHNECLANFLVGEARLESYLEENALASDSNFGRAKSGLAEARRFLHLALGESGQKAGIALDAYLLLAKLCFACGEYEQSLDNFVKAELNTLAEKELTLRSLKILAESYAIKGLCLEQQTTKPSSKFKKAEKDTEMISCFERASDLGLLYLQEYDLVSGSSGSSNNSTAGSTLNVNASTVQPSSSSFAISSTIPASGPSGLEMNRRMGAILETALQRAPIVLIKTEKLQEAVERYRIMLNAIETRATQSLRLTLARQLAEVLLRGVSGTIYSPPFTGKSGGGTLRGGSSKKLWKPRKYAARQQFNPRNQQEEVILLLLIAEALAVRDTVLSQSPEFRQARQHAMGNVTAVYDLLTLATVRWGLVQLLNESFEKALKFSFGEQHVWRQYGLSLMAAEKHSHALRVLQESMKLTPSDPLPCLLASRLCYESLETVKQGLDYAQQALKREVKGLRPSRSQLFVGIGHQQLAIQSNLKSERDACHKLALDALERAVQFDGNDHLAEYYLSLQYALLGQLAEALVHIRFALALRMEHAPCLHLFALLLTSSRRPREALGVVEDALHEFPDNLQLLHVKAHLQLHLEDAETALGTVQHMLAVWRDVYEAQLAGEEEKHSDTKSGVHLAHSSQMSDKDSNSVYAASLAAVSRVEQALSEAASSLSSFTQRPGPRRPWMLQIEIWLLLADVYLRIDQPNEALNCIHEASQIYPLSHQIMFMRGQVHVYLEQWFDAKQCFLNAVAANPNHTEALRALGEAHLVLGEPRLAEKMLKDAAKLDPSCPKIWFALGKVMEILGDFHASADCFATSLQLEPSCPVLPFTSIPLVFE,failed
13,MKDISLKDKITQGINDLFYIWKREFRTTFRDQGVLIFFVLVPLVYPLIYSFIYTNEVVREVPAVVVDDSRSSLSREYLRKVDATPDIQIVAYCADMEEAKQMLKDRLAYGIIYIPKDFSSDIAQGKQTQVSIYCDMSGLLYYKSMLLANTAVSLDMNENIKIARSGNTTDRQDEITAYPIEYEDVAMFNPTNGFAAFLIPAVLILIIQQTLLLGIGLSAGTARENNRFKDLVPINRHYNGTLRIVLGKGLSYFMVYALVSVYVLCAVPRMFSLNQIGQPGTLALFILPYLMACIFFAMTASIAIRNRETCMLIFVFTSVPLLFISGISWPGAAIPPFWKYFSYIFPSTFGINGFVRINNMGATLSEIPFEYKALWIQTGFYFLTTCWVYRWQIIKSRKHVIDKYKEMKNKGKEFFS,failed
14,MMARVEKLRELMKENNLQGFLVTSPYNLRYLTNFTGTTGLAMITLDKAFFVTDFRYTEQAAEQATGFTIVKNTGHIFDEVADLAERLQLDNLAFEETQVSFADYSLLEEILPCELVPVMGLIEELR,not failed
15,GRGAFGVVCKAKWRAKDVAIKQIESESERKAFIVELRQLSRVNHPNIVKLYGACLNPVCLVMEYAEGGSLYNVLHGAEPLPYYTAAHAMSWCLQCSQGVAYLHSMQPKALIHRDLKPPNLLLVAGGTVLKICDFGTACDIQTHMTNNKGSAAWMAPEVFEGSNYSEKCDVFSWGIILWEVITRRKPFDEIGGPAFRIMWAVHNGTRPPLIKNLPKPIESLMTRCWSKDPSQRPSMEEIVKIMTHLMRYFPGADEPLQYPCQYSDEGQSNSATSTGSFMDIASTNTSNKSDTNMEQVPATNDTIKRLESKLLKNQAKQQ,failed
16,MKIIVKTLKGIRFEIEVKPNDSVAEVKKNIETVMGASEYPAAQQILIHKREKLRDETTMEANKVFDKSVIAIIITKGCLEEMEKQNPPLFQMIRHNSAGFVPVLNKESFERDNELAQPEEDLLQLQVTAVDDEAINRVLFYS,failed
17,MSYLSQAPLYSSIPRKNCPIAWEGQFTRGDKGTSTISFEAVASHDLWIWHTFFGCASTLNDINFLDRSPVFDDIEQGNTPRVNFFVYQRQYNMAYYLADGIYPSYPTFVKSIRLPQSEPDKLFVQLQEGCRKDIERAFGVLHARFKIIWNIADLAIIMRSCIILHNMIVENERDTYAQHWTDYDQSKESGSSTPQPFSTEVLHAFANHVHARSKLRDSICTS,not failed
18,MSEWRGFNRKGNTMKIRPGRHNAPDFPHGAAVTIGNFDGVHLGHKHILQKLRLEADARGLPVVAVVFEPQPKEFFALRTGKTPPCRISPLRTKLELLEGTGCVDAAWVLRFDRNFSEISAQAFIDRLLRQTLNTRYLLVGDDFRFGAGREGCFELLAQQPDMQTERTPSVIVEDIRTSSTAVRQALSDGNLAYAKKLLGHDYVLGGRVVHGRKLGRTLNAPTANIRLPGHRYALGGVFVVEADGAFGTRRGVASFGFNPTVDGGCSQKLEVHLFDFQGDLYGQRLNVRFLHKLRDEEKFDGMEELKRRIEADMEAAKCW,not failed
19,MRVSCLSLPWHTPKALLHETITQTYLLWHIVLEHMDIVIVGAGRVGSRTARVVTNEDHAVTVIEQDYDRAERARTEGFDVVEGDGTSEDTLLDAGIDTADAIGALTSDLNTNFIACMVGNHHDCRTVLRIDEDYREDIYRKYADEVDEIVYPERLGAIGAKNALLGGNVTAIADLAEHLQVVQLTVTDEAPMRGYSISELELPAGARLLAFGKHDASLALPLPSETLETGDRIAVLAEFDTLDSVRQILVGNAPPTEVA,failed
20,MKSVKTLLTRPFNWVVLTFCIIFVGLFIFTFFNAKFYDTPIGQITQINNTQSTQVSDEHHNKDTKHKETLHIHILNGKFEGKTTTITHEYTESQADSEAFSKNDKVLLHVDKNLTTAYITEKKRDSLVVAITGIFLLTVLLVGKKIGLQSILSLALNTCIVLLAIYIHNQSPNISLFGLMSIAIFISTTLTLVLVTGWQWRTLITIISTLLGTFLCVGITQCIIQITDGSGLKFETMSFLTLPPKEVFLASVMIGSLGAVMDVAITIASGMAEILRRTPDISMRRWALAGCNIGQDIMGTMTNILLFSYLSGSLPMLLIYLKNANTITYTISMNWSLEISRAITGGIGIVLTIPITILLMQVWFKLRGVKS,failed
21,MDPVLLLSALLLLAFGLIGVGTAEPGLLQDHLLRVGAALLALVLGHLLPPRLLLRYALHALVGVLLLLVLVLLVGDGPGGVRRWFYLGPVALQPSELAKLALILYLSSFVGRRGEDYPILGPVLAVGSLVGLVLVEPDFATAAFLAGLAVLLFVLAGIPWPRLLGMGLAVALVVLPFSGLYLAQFRYVSERFANFVDYLQGESEPGGGAYQVVQAKKALLLGGPFGQGPGATLPHLPEAHNDMVFASVVFATGWLGGAVVFLLYTLILLRSLAVGLALKGGERLLALGLGLYLALQAALNIGVTLGVLPVTGVPLPLVSYGGSSLLVSGFAVGLLSRLAREAAERPRRKGVAR,failed
